Results as given in paper PMC3102678.

Molecular target: F pilus (conjugative pilus encoded by the F′ plasmid) on E. coli TOP10F′ (F+) cells (E. coli (endogenous on TOP10F′, F′ plasmid)) (UniProt P04737)
Chain of UniProt P04737 (P04737 52-121): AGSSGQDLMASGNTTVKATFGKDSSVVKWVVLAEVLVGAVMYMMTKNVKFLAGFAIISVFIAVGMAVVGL

g3p on replicating phage M13-km^R (from UniProt P69168 19-424) (natural protein)
inhibition of F-mediated conjugation by replicating phage M13-km^R (no pre-infection), binding model applied naively without phage replication and infection: apparent Kd: 2.4 pM
